Test results as given in the DeepSol protein solubility set.

assay: soluble on expression in E. coli; label from the status in PepcDB or PDB records

**Q.** For “MGSDKIHHHHHHMNKLRILHLNDLHSHLERFPVIERFFAEKSHEEVESLSFDLGDNVDRVHPLTEATEGQFNVELMNRLDLTAATIGNNEGLGLTHEMLSHLYDEANFPVLLSNLATNFAQSEPLIVTTSFGLRIGLIGLTAPYVLAYPQAGWELSDPFVVLDELLPKLDCDFTILLSHLGKNVDEQIAKDYDEIDLIIGAHTHHLFEHGAQVNQTLLAAAGRYGEYVGQIDLTFNENNQLVDAQIEAIATNTLPQRKSDLVETNGWELRGHKLLEGTVVADLPKALPNVLPDFKGSHYLAKIFADYGNTKLCLMNSGLLVTDELPNHLTLDDLHEFLPHSIRLVRFTFTGEELRQVLLEIMDVSDFLATQKIQGMGFRGKTFGSLIFHGIEPREGDFYIKNSENQSLEKISDEESYQIVLPDQYLFAWYFPLLKKLGKSEILFPYFLREIVAEHFKNK”, which “soluble on expression in E. coli” value is on record?
**A.** not soluble

**Q.** For “GPISEFPVDFHYGVRVDVTLLSKIRRVNEHIKSATKTGVVQVHGSACTPTLSVLSSVGTAGVLGMRIKNALTPLVGHTEGSGDVSFSFRNTSVGSGFTHTRELFGANVLDAGIAFYRKGEACDTGAQPQFVRTTISYGDNLTSTVHKSVVDQKGILPFHDRMEAGGRTTRLMLCGKTGAFLLKWLRQQKTKEDQTVTVSVSETLSIVTFSLGGVSKIIDFKPETKPVSGWDGLKGKKSVDVGVVHTDALSRVSLESLIAALRMCKVPGWFTPGLIWHSNEILEVEGVPTGCQSGDVKLSVLLLEVNRSV”, which “soluble on expression in E. coli” value is on record?
**A.** soluble

**Q.** Which “soluble on expression in E. coli” value does the source give for “MTKHVAVLLAHGFEEAEAVIFIDIMRRLDIRVDILSCEATTALSTYFETPISADALLSDRLDHHYDAVMMPGGPKGTDSLTANPQVIAFLRRHIAQDKYICALCSSGAKVLAAHHLLAGRTYSTGDKLADKFADGAYLDQDVVVDGKFITAKGLGVSFEFAFTVARHLLSDNLPKVEHQASHIYFKHGSAQT” here?
**A.** not soluble

**Q.** With “MAGDPMEAIMKKLIGIATAAVFGLGIFTSSANAETVVTTDVLNVRENPTTESKVVGKLLNGNKIDVQNTENGWSKITLDGKDAFVSAEFTKSIYYVTANVLNVRAEANTNSEVLGKLKKDDVIETTNQVQNEWLQFEYNGKTAYVHVPFLTGTAPVIEKQETTAPAKAAAPAKAQAPVAQAKPAAKPAVKAAETNTPSGGRELTVVATAYTAHPSENGGTYGGRVLTAMGHDLTANPNMKMIAVDPKVIPLGSKVWVEGYGEAIAGDTGGAIKGTRIDILLGSDSAAQKWGRKTVKVKILKLEHHHHHH” as the sequence, how does the “soluble on expression in E. coli” value read?
**A.** not soluble

**Q.** For “MMIMERHYTLKEASKILGVSIKTLQRWDKAGKIKCIRTLGGKRRVPESEIKRILGIKDKEQRKIIGYARVSFNAQKDDLERQIQLIKSYAEENGWDIQILKDIGSGLNEKRKNYKKLLKMVMNRKVEKVIIAYPDRLTRFGFETLKEFFKSYGTEIVIINKKHKTPQEELVEDLITIVSHFAGKLYGMHSHKYKKLTKTVKEIVREEDAKEKE”, which “soluble on expression in E. coli” value is on record?
**A.** not soluble

**Q.** For “MIETEKKEERVLLIGVELQGMDSFDLSMEELASLAKTAGAVVVDSYRQKREKYDSKTFVGSGKLEEIALMVDAEEITTVIVNNRLTPRQNVNLEEVLGVKVIDRMQLILDIFAMRARSHEGKLQVHLAQLKYLLPRLVGQGIMLSRQAGGIGSRGPGESQLELNRRSVRNQITDIERQLKVVEKNRATVREKRLESSTFKIGLIGYTNAGKSTIMNILTSKTQYEADELFATLDATTKSIHLGGNLQVTLTDTVGFIQDLPTELVSSFKSTLEESKHVDLLVHVIDASNPYHEEHEKTVLSIMKDLDMEDIPHLTLYNKADLVEDFTPTQTPYTLISAKSEDSRENLQALLLDKIKEIFEAFTLRVPFSKSYKIHDLESVAILEERDYQEDGEVITGYISEKNKWRLEEFYDLEHHHHHH”, which “soluble on expression in E. coli” value is on record?
**A.** not soluble

**Q.** For “MAATFPLSAGTYSINGRKYRKTAYNLKADTSFDLNTDTTFADTPDIYEDEASADCFAPPGLPELRKRAAKAKIVAKAVETSSKEPEPTEDDRIKVIGGKKWISSINVAPCFIGKLIGTNRRTLNSLENETQCRVKTPRRNENIACEISSIVSLECVQRCLDRLEIFIDDSRKTARVNHFVALPCDQHEVQENFNIFKQMVMESDHFDSSCKNSQLFTKPTRLHLTLSVARIFDDMDLQKAVGAFEILEKEIRQIKDSKPLIADIQGIDMMNDDPSQVFVLYAKVKGDKVQEVANYVNRRLIELGVSSKNEHDNGSDAVKLHMTLMNSRYVTQSEKSGKSKEAALFDAKQVLEDLKDSYFGTFELKEVNFDVKKFKQRI”, which “soluble on expression in E. coli” value is on record?
**A.** not soluble

**Q.** With “MGSDKIHHHHHHSCGNKDKGTTVPEGNPSDREAMLKNVADNIVIPANAKFEIKLDNMIAKSDVFRNNPTVTTLSEYRIAWAEAYIEWQKIGIFDFGPAADVALNSYMNVYPANVSNINANILSGNANLEVFESYSAQGFPAIDYLINGSADTDDDIVALYVTGEDADKRKAYLLRLTNQMHAKFEAVNAAWKGDYRNTFVSSTGTGLNASTSVMVNGIVFYYERFIRSGKFGIPSGAMTGTPLNASVEAYYKKDIGKILAQTAQQAFVDYFNGKGVTTGIEGPSLKTYLNALDAKDATTKQPLSEIINNQFTVVDSKLNVLSDNLSNEVLTNKAAMVAVYNEMQKAVRMLKVDMTSALSVTITYTDNDGD” as the sequence, how does the “soluble on expression in E. coli” value read?
**A.** not soluble

**Q.** With “MAHHHHHHMLFYITPFPHSEVMRVEEQHQLFLAAKEAQLVRNEATQIILSDASHHSALHGAFVRVLVELPDQSDSYIIARVGAVTTGEPYDGFSHNTSTRTDKYLVLVLPHSLASINGTQYQLNSISNSPMTEDEFNLWLSTMQEPGSVPACAYRGVVEDTDAHLYLESSKIPSRQELLAIGGRIHALGSAASQNSRNPNSRRRRSNNGSSEQSLQQPEWMPKEQQMAIPRISSGNGATLGSIAGMQDYSAFMANPTGGAGPQNGANFNHTNSDPLPSTAGVTEGTNEPSLFVEPTTPRPASATEQELDLPSRHQIRQDILNKLNHRSVVFPQNIDELKLSQLRLVERDMIEYLEHVRDVLSSKQENCVVCLDHVPTVISLPCRHKVLCRLCASAVSTCPVCRSHLFELFEPKEI” as the sequence, how does the “soluble on expression in E. coli” value read?
**A.** not soluble

**Q.** With “SAEEKVKDEAMQIMGMFQILPRLVVFDLDYTLWPFYCECRSKREMPSMYPQAKGILSALKEKGIEMAIASRSPTSDIANTFLDKLNIKPMFVAKEIYSSWSHKTEHFQKIHTRTGVPFTAMLFFDDEDRNIKSVSKMGVTSILVGDGVTLGAFRQGLTEFTQNHNSIEKNKQVWRDKYSGKPTSSETDKD” as the sequence, how does the “soluble on expression in E. coli” value read?
**A.** soluble

**Q.** For “MSLTELPRIISVDDHVIEPAHLFETWLPKKYRDRGPKPLTAGIGELAYVGGKYQITMDPKGPPTDWWIYEDLKFPYKRNIAAVGFDRDEMTLEGITRAEMRRGCWDPVERLKDMDANHVEGSLCFPTFPRFCGQTFAEAHDKEVALACVRAYNDWMVEEWCGDSGGRLIPLCLIPLWDIGLAVAEIRRNAARGVKAVTFSEIPTHLGLPSIHSGYWDPFFAVCQETGTVVNMHIGSSSQMPAASPDAPPAVQAALSFNNAMASMMDFLFSGVLVKFPRLKLAYSEGQMGWIPYALERADDVWEEHRAWGGVRDLIPEPPSTYYYRQIFCCFFRDKHGVASIDVVGRDNATFETDYPHVDSTFPHTKEVALDHVEGLDDETVYKLMRGNAIRMLDLDLDRDLDHLGNRDHLGARDTLSSRDKADREGHHHHHH”, which “soluble on expression in E. coli” value is on record?
**A.** soluble

**Q.** For “MGSDKIHHHHHHMPKVEIAPSEIKIPDNVLKAKLGFGGAEEIPEEFRKTVNRAYEELLDAAKPVVLWRDFEVDGSLSFDDMRLTGELATKHLSGSKIITVFLATLGKKVDEKIEEYFRKGEDLLAFFIDGIASEMVEYALRKVDAELRMKRSNLEGSFRISPGYGDLPLSLNKKIAEIFKEEVDVNVIEDSYVLVPRKTITAFVGWREKNEKQT”, which “soluble on expression in E. coli” value is on record?
**A.** soluble

**Q.** Which “soluble on expression in E. coli” value does the source give for “MLRAKLLSWQEGVGSKTFEFDVDVEPRSYVISKVSQLSPIIASEDLTVCEGEVAVVGTRVIEIPENTVVRPVAAISHANGFVADVIECGAPGMVEDEKCINHAVFIPTRSGDVKEGDLLGMLRINFVRTGLLSRVIPSKPRVEERTVKASLTWVEGGVFYRENVTGTFSGYFESERCSLLPIVADERVRIEKGGVSAVEIERVDVKGGSIITPYGLAANAFAQLLDLVGGRTRKFEEDRVFDEAVLVGFSDGVVEKGEVLGLVCVMGESSGGGNSRQLQFSRKAGKGVVKTIHEYRSKPLRVGRKGEWRPAISDENRKLIRGVAEIIKIRPINVPDYAVVNPLGIMRQAYGTMVGGIANEPWSLESRKTIEEVVFLPIMDGEVRKGQLIGVFNVTRVAEGKLLEHHHHHH” here?
**A.** soluble

**Q.** Which “soluble on expression in E. coli” value does the source give for “MSHLALKDLFSGFFVIDDEEEVEVPDKQQQVNEAPAKEQSQQTTKQNAIKSVPQKSASRYTTTSEERNNRMSNYSKNNSRNVVTMNNATPNNASQESSKMCLFEPRVFSDTQDIADELKNRRATLVNLQRIDKVSAKRIIDFLSGTVYAIGGDIQRVGTDIFLCTPDNVEVAGSITDHIENMEHSFDLEHHHHHH” here?
**A.** not soluble

**Q.** For “MSLESVGDVLKRQPSRFHYQDLVQKIMKDPDVAAFVQQESLNQDELNRSISKFNQYITERDKFLRGDTDYIAKGYKPILVMNHGYADVSYEETPELIAAEKEAAIKKRLNLINFPSSLKNVSFLDVYRDDVQRLTVLKRMIEFVNDYPNNLKGLYLYGDFGVGKSFMVAALAHDLSEKRGVSSTLLHYPSFVIDVKNAIGDGNVKTLVDEIKLSEVLILDDIGAEQSTAWVRDEILQVILQYRMQENLPTFFTSNFNFEDLEKHFAKGKNGNDETWEARRVMERIRYLAEETRLEGVNRREGHHHHHH”, which “soluble on expression in E. coli” value is on record?
**A.** soluble

**Q.** With “MVLKTVALVGNPNVGKTTIFNALTGLRQHVGNWPGVTVEKKEGIMEYREKEFLVVDLPGIYSLTAHSIDELIARNFILDGNADVIVDIVDSTCLMRNLFLTLELFEMEVKNIILVLNKFDLLKKKGAKIDIKKMRKELGVPVIPTNAKKGEGVEELKRMIALMAEGKVTTNPIIPRYDEDIEREIKHISELLRGTPLAEKYPIRWLALKLLQRDEEVIKLVLKYLGQEKMDEILKHISELEEKYKRPLDIVIASQKYEFLEQLLRKFVVHE” as the sequence, how does the “soluble on expression in E. coli” value read?
**A.** soluble

**Q.** With “MSLSRNSDLHMHSTASDGGYSPTELMEKCHQANLKFVALTDHDTVNGIEEAKQTAHRLGFILIPGIELSTKASGQSVHMLGYGIDWKNDTLKRRLDRQQDIRKQRLEQILLKLKAAGVPLEQDAVLRYADGGAIGRPHVAKALMDKGYVRSVQEAFEHYLAEGRPCYVKRQEYISVEQAIAWIHQAGGVAIVAHPGYYDLDDQLIGWVREYGLDGIEVYHRDHSREVVAHYEQLCKRMEAETGRRLLRTGGSDFHHESYGRTAAPLGTTRIPDQLTYELLHDLERKKTRAEGHHHHHH” as the sequence, how does the “soluble on expression in E. coli” value read?
**A.** soluble

**Q.** For “MVSQTERQHAIASLLAPTGAVSVGDLAEHFHVTTETVRRDLRIMESLGLLQRVHGGAISPEPMGTSPPRLKPALGKGMPPEPRVLELAETAVSLITPLARSIFLDSGLACTAIATVLGDPPEDARWTVVTSSPGAVIALSATDATSTVVLHGQVHGNCSSIIGSTAVDMISQLRADIAFVEVDAIQSDTSLCTFFPETIPIKQAMIKNAAFTVAVLSPRSPQDQELQLLKHPFSTLADFDALVTDDHTLDFPVLPDHNFQVVTPLEHHHHHH”, which “soluble on expression in E. coli” value is on record?
**A.** soluble

**Q.** Which “soluble on expression in E. coli” value does the source give for “MHHHHHHSSGRENLYFQGNFDYMFKLLIIGNSSVGKTSFLFRYADDTFTPAFVSTVGIDFKVKTVYRHEKRVKLQIWDTAGQERYRTITTAYYRGAMGFILMYDITNEESFNAVQDWATQIKTYSWDNAQVILVGNKCDMEEERVVPTEKGQLLAEQLGFDFFEASAKENISVRQAFERLVDAICDKMSDS” here?
**A.** soluble

**Q.** Which “soluble on expression in E. coli” value does the source give for “MKIRILGSGTSTGVPEIGCTCAVCTSKDPRDCRLRTSALVYTDDATILLDCGPDFREQMLRVPFGKIDAVLISHEHYDHVGGLDDLRPFCRFGEVPIYAETYTAERLRSRMPYCFVEHSYPGVPNIPLREIEPNRPFLVNHTEVLPLRVMHGKLPILGYRIGKLGYITDMLTMPDESFEQLQGIEVLVMNALRIAPHNTHQSLSEALEAVKRIGAKETWLIHMSHHIGLQADVEKQLPPHVHFAFDGLELECLEHHHHHH” here?
**A.** not soluble
